The text below walks through data of paper PMC9001700 (Communications Biology, 2022).

Common to all, as to conditions: both partners purified
The target in experiment [1] is T1, HCoV-OC43 S-2P-T4f-3C-His8-Strep2x2 (stabilized spike ectodomain) (HCoV-OC43, strain , UniProt P36334, stabilised).
T1 construct: also called HCoV-OC43-S2P.his; stabilized spike ectodomain from HCoV-OC43; source: 293E cells, purified (Ni-NTA, SEC on superose 6)
Kind of experiment: BLI.

Experiment [2] concerns the target T2, HCoV-HKU1 S-2P-T4f-3C-His8-Strep2x2 (stabilized spike ectodomain) (HCoV-HKU1, isolate  (isolate …, UniProt Q0ZME7, stabilised)).
T2 construct: also called HCoV-HKU1-S2P.his; stabilized spike ectodomain from HCoV-HKU1; source: 293E cells, purified (Ni-NTA, SEC on superose 6)
The experiment in a line: BLI. On the technique in general: In BLI a coated tip is dipped into the sample, and binding shifts an interference pattern.

The target in experiment [3] is T3, synthetic stem helix peptide spanning residues 1149–1167 (SARS-CoV-2, UniProt P0DTC2).
T3 chain: KEELDKYFKNHTSPDVDLG
Kind of experiment: crystal structure.

B1: CV3-25 IgG (antibody, V domains shown)
VH: QVQLVESGAEVKKPGESLKISCKGSGYTFTRYWIGWVRQMPGKGLEWMGIIYPGDSDTRYSPSFQGHVTISADKSISTAYLQWNSLKASDTAMYYCARLPQYCSNGVCQRWFDPWGQGTLVTVSS
VL: EIVLTQSPSSVSASVGDRVTITCRASQGISSWLAWYQQKPGKAPKLLIYAASSLQSGVPSRFSGSGSGTDFTLTISSLQPEDFATYYCQQGNSFPYTFGQGTNLEIK
notes: also called CV3-25 mAb; source: 293 cells, purified (protein A resin); copies: 2 + 2
For the molecule B1, the binding result in experiment [1] and in experiment [2] was “binds” in each case.

B2: CV3-25 Fab (Fab, V domains shown)
VH: B1 VH
VL: B1 VL
notes: also called monovalent Fab
As for B2, the binding result in experiment [3] is “binds”.
